The target in test [1] is T1, human PD-L1/His fusion protein (human, UniProt Q9NZQ7 19-239). Kind of test: BLI Octet Red, binding protein on AHC sensor, PD-L1-his in solution. The method, then:
Sensors were then dipped into running buffer (1×pH 7.2 PBS, 0.05% Tween 20, 0.1% BSA) for 60 seconds to check baseline. Binding was measured by dipping sensors into a series diluted concentration of recombinant human PD-L1-his protein. Dissociation was followed by dipping sensors into running buffer for 1200 seconds. The association and dissociation curves were fitted to a 1:1 Langmuir binding model using ForteBio Data Analysis software (Pall). The equilibrium dissociation constant KD (M) of the reaction between antibodies and related target proteins was then calculated from the kinetic rate constants using the formula KD=koff/kₒₙ.
A general note: Biolayer interferometry detects binding as a change in optical thickness at a sensor tip.

The target in the next test is T2, human TGFβ1 (human, UniProt P01137 279-390).
T2 construct: also called TGFβ isoform 1; TGFβ1 (Cat. No. CA59, Novoprotein)
The experiment in a line: ELISA: human TGFβ1 coated (1 µg/ml), binding protein titrated 0.0006-10 nM, anti-human IgG Fc-HRP, OD450. The method, then:
(§1) Accordingly, each of the wells of the ELISA microplates provided a reaction mixture to test the ability of a particular binding protein at a particular concentration to bind to a particular TGFβ isoform. […] Plates were washed three times in washing buffer (PBS containing 0.05% Tween 20) and blocked for 1 hour at 37° C. with 200 μl per well of blocking buffer (1% BSA in PBS containing 0.05% Tween 20). […] The wells containing the various binding mixtures were incubated at 37° C. for 1 hour to permit binding to TGFβ protein on the surface of the wells. Thereafter, the wells were washed four times with washing buffer, and anti-human IgG Fc HRP (Sigma, Catalog No. A0170) was diluted 1:10000 and added to the wells at 100 μl per well to detect binding protein that was bound to TGFβ protein present on the surface of a well. The plates were incubated for 1 hour at 37° C. and washed four times with washing buffer. 100 μl of tetramethylbenzidine (TMB) chromogenic solution were added per well. Following color development, the reaction was stopped with 1 N HCl, and absorbance at 450 nm (OD450) was measured on a VARIOSKAN™ LUX microplate reader (Thermo Scientific™).

Another test addresses T3, human TGFβ2 (human, UniProt P61812 303-414).
T3 construct: also called TGFβ isoform 2; TGFβ2 (Cat. No. CJ79, Novoprotein)
T3 sequence (looked up): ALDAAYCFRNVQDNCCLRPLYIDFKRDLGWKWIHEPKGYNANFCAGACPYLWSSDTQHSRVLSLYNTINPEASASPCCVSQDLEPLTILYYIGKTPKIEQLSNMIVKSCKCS
The experiment in a line: ELISA: human TGFβ2 coated (1 µg/ml), binding protein titrated 0.0006-10 nM, anti-human IgG Fc-HRP, OD450. On the procedure:
as §1
Background: An ELISA detects its analyte on a solid surface through an enzyme-linked reagent.

The target of test [2] is T4, biotinylated human PD-L1 protein (ACROBiosystems, H82E5) (human, UniProt Q9NZQ7 19-238, biotinylated (site not stated)).
T4 construct: also called biotinylated PD-L1
Kind of test: dual-binding ELISA: human TGFβ1 coated, 5 nM binding protein bound to it, biotinylated human PD-L1 titrated 0.0006-10 nM (axis labelled Ab (nM)), streptavidin-HRP, OD450; the EC50 is of the titrated PD-L1. On the procedure: (§2) Briefly, ELISA plates were incubated overnight at 4° C. with 100 μl of a human TGFβ isoform diluted in PBS buffer, pH 7.4, at 1 μg/ml, to allow the human TGFβ isoform to coat (adsorb to) the surface of the wells. Plates were washed three times in washing buffer (PBS containing 0.05% Tween 20) and blocked for 1 hour at 37° C. with 200 μl per well blocking buffer (1% BSA in PBS containing 0.05% Tween 20). […] The wells were washed four times with washing buffer, and Streptavidin-HRP (Merck, RABHRP3) was diluted 1:10000 and added to the wells at 100 μl per well. The plates were incubated for 1 hour at 37° C. and washed four times in washing buffer. 100 μl of tetramethylbenzidine (TMB) chromogenic solution were added per well.

In test [3] the target is T4, biotinylated human PD-L1 protein …. Kind of test: dual-binding ELISA: human TGFβ2 coated, 5 nM binding protein bound to it, biotinylated human PD-L1 titrated 0.0006-10 nM (axis labelled Ab (nM)), streptavidin-HRP, OD450; the EC50 is of the titrated PD-L1. The method, then:
as §2

For test [4] the target is unchanged. Kind of test: dual-binding ELISA: human TGFβ3 coated, 5 nM binding protein bound to it, biotinylated human PD-L1 titrated 0.0006-10 nM (axis labelled Ab (nM)), streptavidin-HRP, OD450; the EC50 is of the titrated PD-L1. On the procedure:
as §2

Test [5] addresses T1, human PD-L1/His fusion protein. Kind of test: BLI off-rate; test group 4. The method, then:
(§3) Briefly, antibodies were characterized for affinities and binding kinetics by Octet®RED96 biolayer interferometry (Pall ForteBio LLC). Antibodies were captured by Anti-hIgG Fc Capture (AHC) Biosensors (Pall) at a concentration of 100 nM for 30 seconds. Sensors were then dipped into running buffer (1×pH 7.2 PBS, 0.05% Tween 20, 0.1% BSA) for 60 seconds to check baseline. Binding was measured by dipping sensors into a single concentration of recombinant human PD-L1/His fusion protein (Novoprotein). Dissociation was followed by dipping sensors into running buffer for 1200 seconds. The association and dissociation curves were fitted to a 1:1 Langmuir binding model using ForteBio Data Analysis software (Pall). […] The off-rate ratio serves as a data normalization. Accordingly, in each test group, the off-rate ratios of the humanized antibodies can be compared with that of the chimeric antibody, and the off-rate ratios of each of the humanized antibodies can be compared to one another within all test groups.

Test [6] has the same target. The experiment in a line: BLI Octet RED96, antibody on AHC sensor, single conc. PD-L1/His; test group 4; test group 4. The method, then: as §3

T4 sequence (Q9NZQ7 19-238 limits assumed): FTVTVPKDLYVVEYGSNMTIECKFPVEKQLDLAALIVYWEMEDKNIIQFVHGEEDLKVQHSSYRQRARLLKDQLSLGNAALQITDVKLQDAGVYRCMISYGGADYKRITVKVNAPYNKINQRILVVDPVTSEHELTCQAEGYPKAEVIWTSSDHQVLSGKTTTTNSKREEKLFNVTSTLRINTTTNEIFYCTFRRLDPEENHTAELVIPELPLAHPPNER
T1 sequence (Q9NZQ7 19-239 limits assumed): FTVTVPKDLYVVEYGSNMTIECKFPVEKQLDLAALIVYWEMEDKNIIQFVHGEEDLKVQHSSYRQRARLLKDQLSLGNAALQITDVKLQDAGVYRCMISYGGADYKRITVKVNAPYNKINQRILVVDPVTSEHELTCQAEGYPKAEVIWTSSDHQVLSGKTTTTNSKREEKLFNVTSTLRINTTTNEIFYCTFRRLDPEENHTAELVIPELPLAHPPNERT
T2 sequence (P01137 279-390 limits assumed): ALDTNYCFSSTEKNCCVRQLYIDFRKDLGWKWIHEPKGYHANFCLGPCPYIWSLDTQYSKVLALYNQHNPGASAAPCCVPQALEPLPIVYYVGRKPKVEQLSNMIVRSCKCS

B1: FIT1012-7a TGFβ/PD-L1 bispecific binding protein (bispecific antibody, human IgG1, kappa)
heavy: not shown
chain: TIPPHVQKSVNNDMIVTDNNGAVKFPQLCKFCDVRFSTCDNQKSCMSNCSITSICEKPQEVCVAVWRKNDENITLETVCHDPKLPYHDFILEDAASPKCIMKEKKKPGETFFMCSCSSDECNDNIIFSEEYNTSNPDASTKGPSVFPLAPSSKSTSGGTAALGCLVKDYFPEPVTVSWNSGALTSGVHTFPAVLQSSGLYSLSSVVTVPSSSLGTQTYICNVNHKPSNTKVDKKVEPKSC
light: DIQLTQSPSFLSASVGDRVTITCKASQDVGTAVAWYQQKPGKAPKLLIYWASTRHTGVPSRFSGSGSGTEFTLTISSLQPEDFATYYCQQYSSYPYTFGQGTKLEIKRTVAAPSVFIFPPSDEQLKSGTASVVCLLNNFYPREAKVQWKVDNALQSGNSQESVTEQDSKDSTYSLSSTLTLSKADYEKHKVYACEVTHQGLSSPVTKSFNRGEC
notes: Six-chain protein; anti-PD-L1 moiety from HuEM0005-90-1 with G55A; four TGFβR2(ECD) traps
Usually Kd stands for a measure of binding affinity in units of concentration. Usually EC50 stands for the concentration that produces a half-maximal response. Read a low EC50 as a more potent agent. For B1, the Kd in test [1] was less than 0.01 nM. Besides, the EC50 stood at 0.374 nM with human TGFβ1; 0.833 nM with human TGFβ2; 0.275 nM in test [2]; 0.262 nM in test [3]; 0.262 nM in test [4].

B2: HuEM0005-90-19 (antibody, human IgG1, V domains shown)
VH: EVQLVQSGAEVKKPGASVKVSCKTSGYTFTSHSINWVRQATGQGLEWMGYMYIGNGYTEYNEKFKGRVTMTSNTSISTAYMELSSLRSEDTAVYYCAKITPVVAPYVMDYWGQGTSVTVSS
VL: DIVMTQSPSFLSASVGDRVTITCKASQDVGTAVAWYQQKPGKAPKLLIYWASTRHTGVPDRFTGSGSGTDFTLTISSLQPEDFATYYCQQYSSYPYTFGQGTKLEIK
For orientation: koff means a measure of how fast the partners let go of each other. As for B2, in test [5], the “Off-Rate Ratio to that of EM0005-90c” value was 146%. The molecule also yielded a koff in test [6] of 0.00328 s⁻¹.

These data come from patent US20230242675A1 (SHANGHAI EPIMAB BIOTHERAPEUTICS, published 2023).
